# Laboratory results reported in PMC3685266.
# Assays:
# [1] = molecular target: SecA_(D337C/K482C), intramolecularly disulfide cross-linked (clamp closed) (E. coli) (UniProt P10408); test: steady-state ATPase activity titration; 0.15 μM SecA, 1 mM ATP, TKM buffer pH 7.5, 0.03% C12E9, 25°C, increasing purified detergent-solubilized SecYEG, with or without 10 mM DTT; apparent affinity from a ligand-binding fit
# [2] = molecular target: SecA_(Δcys), SecA without cysteine residues (E. coli) (UniProt P10408); test: steady-state ATPase activity titration; 80 nM SecA, 1 mM ATP, TKM buffer, increasing vesicles reconstituted with purified SecYEG, with 0.6 μM proOmpA_(Δcys), with or without 10 mM DTT
substance,measurement,setting,value
SecYEG complex (from UniProt P0AGA2 1-443; P0AG96 1-127; P0AG99 1-110),fold increase in apparent affinity over the SecA (Δcys) control,[1],500 fold
same,fold increase in affinity in the presence of proOmpA,[2],5 fold
